Experimental data: US20230183352A1 (published 2023)
Residue numbers refer to the chain shown, from its start. Read-outs that look alike come from different tables or passages of the source. Values belong to the binder of their own block, whether it stands above or below them.

Tests used:
[1] = target: T1, Claudin 18.2 (CLDN18.2), expressed on CHOS-CLDN 18.2 / HEK293-CLDN 18.2 / HCC827-CLDN 18.2 cells (human, UniProt P56856-2 1-261); assay: FACS, CHOS-CLDN18.2 cells, 0.078 µg/ml
T1 construct: whole, on cells; The species is not repeated for the CHOS-CLDN 18.2 cells; also called claudin-18A2
Experimental: (§1) The initial concentration of the antibody was 20 μg/ml, it was diluted at 1:4, and incubated at 4° C. for 60 min.

[2] = target: T1, Claudin 18.2 (CLDN18.2), expressed on …; assay: FACS, CHOS-CLDN18.2 cells, 20 µg/ml
Experimental: as §1

[3] = target: T1, Claudin 18.2 (CLDN18.2), expressed on …; assay: FACS, CHOS-CLDN18.2 cells, 0.313 µg/ml
Experimental: as §1

[4] = target: T1, Claudin 18.2 (CLDN18.2), expressed on …; assay: FACS, CHOS-CLDN18.2 cells, 10 µg/ml
Experimental: (§2) The initial concentration of the antibody was 20 μg/mkit was diluted at 1:4, and incubated at 4° C. for 60 min.

[5] = target: T1, Claudin 18.2 (CLDN18.2), expressed on …; assay: FACS, CHOS-CLDN18.2 cells, 0.020 µg/ml
Experimental: as §1

[6] = target: T1, Claudin 18.2 (CLDN18.2), expressed on …; assay: FACS, MFI on CHOS-CLDN18.2 over MFI on CHOS-CLDN18.1, 10 µg/ml
Experimental: as §2

[7] = target: T1, Claudin 18.2 (CLDN18.2), expressed on …; assay: FACS, CHOS-CLDN18.2 cells
Experimental: as §1

[8] = target: T1, Claudin 18.2 (CLDN18.2), expressed on …; assay: FACS, CHOS-CLDN18.2 cells, 0.005 µg/ml
Experimental: as §1

[9] = target: T1, Claudin 18.2 (CLDN18.2), expressed on …; assay: cell-based or functional assay
[10] = target: T1, Claudin 18.2 (CLDN18.2), expressed on …; assay: FACS, CHOS-CLDN18.2 cells, 0 µg/ml (background)
Experimental: as §1

[11] = target: T1, Claudin 18.2 (CLDN18.2), expressed on …; assay: FACS, CHOS-CLDN18.2 cells, 5 µg/ml
Experimental: as §1

[12] = target: T1, Claudin 18.2 (CLDN18.2), expressed on …; assay: FACS, CHOS-CLDN18.2 cells, 1.250 µg/ml
Experimental: as §1

[13] = target: T1, Claudin 18.2 (CLDN18.2), expressed on …; assay: FACS, CHOS-CLDN18.2 cells, 0.005 µg/ml; remark: listed apart in the source
Experimental: as §1

[14] = target: T1, Claudin 18.2 (CLDN18.2), expressed on …; assay: FACS, CHOS-CLDN18.2 cells, 0.078 µg/ml; remark: listed apart in the source
Experimental: as §1

[15] = target: T1, Claudin 18.2 (CLDN18.2), expressed on …; assay: FACS, CHOS-CLDN18.2 cells, 0 µg/ml (background); remark: listed apart in the source
Experimental: as §1

[16] = target: T1, Claudin 18.2 (CLDN18.2), expressed on …; assay: FACS, CHOS-CLDN18.2 cells, 5 µg/ml; remark: listed apart in the source
Experimental: as §1

[17] = target: T1, Claudin 18.2 (CLDN18.2), expressed on …; assay: FACS, CHOS-CLDN18.2 cells; remark: listed apart in the source
Experimental: as §1

[18] = target: T1, Claudin 18.2 (CLDN18.2), expressed on …; assay: FACS, CHOS-CLDN18.2 cells, 20 µg/ml; remark: listed apart in the source
Experimental: as §1

[19] = target: T1, Claudin 18.2 (CLDN18.2), expressed on …; assay: FACS, CHOS-CLDN18.2 cells, 0.020 µg/ml; remark: listed apart in the source
Experimental: as §1

[20] = target: T1, Claudin 18.2 (CLDN18.2), expressed on …; assay: FACS, CHOS-CLDN18.2 cells, 0.313 µg/ml; remark: listed apart in the source
Experimental: as §1

[21] = target: T1, Claudin 18.2 (CLDN18.2), expressed on …; assay: FACS, CHOS-CLDN18.2 cells, 1.250 µg/ml; remark: listed apart in the source
Experimental: as §1

B2: QP14581454 (antibody, human IgG1, kappa, V domains shown)
VH: QVQLVQSGAEVKKPGASVKVSCKASGYTFTNYFVHWVKQAPGQGLEWIGYINPYNDDTKYNEKFKGKATLTRDTSTSTVYMELSSLRSEDTAVYYCLSLRFFAYWGQGTLVTVSS
VL: DIVMTQSPDSLAVSLGERATISCKSSQSLLNSGNQKNYLTWYQQKPGQAPKLLIYWASTRESGVPDRFSGSGSGTDFTLTISSVQAEDVAVYFCQNDYSYPLTFGGGTKVEIKR
notes: Humanized from QP201202
- FACS reading [13]: 2370
- FACS reading [14]: 11500
- FACS reading [15]: 732
- MFI [4]: 502000
- CLDN18.2/CLDN18.1 (MFI ratio) [6]: 506
- FACS reading [16]: 73700
- EC50 [17]: 0.363 µg/mL
- max [17]: 73700
- FACS reading [18]: 58600
- FACS reading [19]: 4470
- FACS reading [20]: 30800
- FACS reading [21]: 56100

B5: QP201202 (antibody, human IgG1, V domains shown)
VH: EVQLQQSGPELVKPGASVKMSCKASGYTFTNYFVHWVKQKPGQGLEWIGYINPYNDDTKYNEKFKGKATLTSDKSSSTAYMDLSSLTSEDSAVYYCLSLRFFAYWGQGTLVTVSA
VL: DIVMTQSPSSLTVTAGEKVTMSCKSSQSLLNSGNQKNYLTWYQQKPGQAPKLLIYWASTRESGVPDRFIGSGSGTDFTLTISHVQAEDLAVYFCQNDYSYPLTFGAGTNLELK
notes: Chimeric; also called 44C6
- FACS reading [13]: 2260
- FACS reading [14]: 12600
- FACS reading [15]: 732
- MFI [4]: 439000
- CLDN18.2/CLDN18.1 (MFI ratio) [6]: 381
- FACS reading [16]: 81100
- EC50 [17]: 0.417 µg/mL
- max [17]: 113000
- FACS reading [18]: 113000
- FACS reading [19]: 4770
- FACS reading [20]: 38000
- FACS reading [21]: 92700

Continued, in another order:

- FACS reading [1]: 35400
- FACS reading [2]: 169000
- FACS reading [3]: 104000
- MFI [4]: 620000
- FACS reading [5]: 13800
- CLDN18.2/CLDN18.1 (MFI ratio) [6]: 470
- EC50 [7]: 0.223 µg/mL
- max [7]: 169000
- FACS reading [8]: 4930
- FACS reading [10]: 732
- FACS reading [11]: 139000
- FACS reading [12]: 123000
B1: QP14451440 (antibody, human IgG1, kappa, V domains shown)
VH: QVQLVQSGAEVKKPGASVKVSCKASGYAFSSYWMNWVRQAPGQGLEWIGQIYPGNGDTTYNGKFKGRVTMTADKSTSTVYMELSSLRSEDTAVYFCARFVKGNAMDYWGQGTLVTVSS
VL: B2 VL with A49P, V84L, F93Y, D97A, L102F, G106Q, V110L
notes: Humanized from QP192193; also called QP14401445
- EC50 of killing, ADCC (PBMC, HEK293-CLDN18.2 cells) [9]: 0.0082 µg/mL
- Killing percentage, ADCC (PBMC, HEK293-CLDN18.2 cells), 0 µg/ml [9]: 5.43%
- Killing percentage, ADCC (PBMC, HEK293-CLDN18.2 cells), 0.0001024 µg/ml [9]: -1.11%
- Killing percentage, ADCC (PBMC, HEK293-CLDN18.2 cells), 0.000512 µg/ml [9]: 10%
- Killing percentage, ADCC (PBMC, HEK293-CLDN18.2 cells), 0.00256 µg/ml [9]: 10.8%
- Killing percentage, ADCC (PBMC, HEK293-CLDN18.2 cells), 0.0128 µg/ml [9]: 28.5%
- Killing percentage, ADCC (PBMC, HEK293-CLDN18.2 cells), 0.064 µg/ml [9]: 42.1%
- Killing percentage, ADCC (PBMC, HEK293-CLDN18.2 cells), 0.32 µg/ml [9]: 43.7%
- Killing percentage, ADCC (PBMC, HEK293-CLDN18.2 cells), 1.6 µg/ml [9]: 37.8%
- Killing percentage, ADCC (PBMC, HEK293-CLDN18.2 cells), 8 µg/ml [9]: 42.7%
- Killing percentage, ADCC (PBMC, HEK293-CLDN18.2 cells), 40 µg/ml [9]: 47.8%

- FACS reading [13]: 2470
- FACS reading [14]: 13400
- FACS reading [15]: 732
- MFI [4]: 477000
- CLDN18.2/CLDN18.1 (MFI ratio) [6]: 430
- FACS reading [16]: 114000
- EC50 [17]: 0.573 µg/mL
- max [17]: 146000
- FACS reading [18]: 146000
- FACS reading [19]: 6390
- FACS reading [20]: 44800
- FACS reading [21]: 107000
B3: QP14561454 (antibody, human IgG1, kappa, V domains shown)
VH: B2 VH with K38R, I48M, K67R, A68V, L70M
VL: B2 VL
notes: Humanized from QP201202

- FACS reading [13]: 2420
- FACS reading [14]: 13600
- FACS reading [15]: 732
- MFI [4]: 554000
- CLDN18.2/CLDN18.1 (MFI ratio) [6]: 581
- FACS reading [16]: 83000
- EC50 [17]: 0.425 µg/mL
- max [17]: 104000
- FACS reading [18]: 104000
- FACS reading [19]: 5920
- FACS reading [20]: 33300
- FACS reading [21]: 91400
B4: QP14581453 (antibody, human IgG1, kappa, V domains shown)
VH: B2 VH
VL: B2 VL with V84L, F93Y
notes: Humanized from QP201202
